Target: rat KLRE1-HA (short splice variant), in transiently transfected 293T cells (rat) (UniProt Q80ZC8)
Assay: SDS-PAGE under nonreducing and reducing conditions with Western blot

Work on “rat KLRE1-HA (short splice variant), in transiently transfected 293T cells (from UniProt Q80ZC8 1-226) (receptor)” yielded a stoichiometry N of 2.

— PMC2193914
